What was measured:
[1] = molecular target: Human LILRB2 on stably transduced HEK293T cells (human) (UniProt Q8N423); assay: flow cytometry competition on HEK293T-LILRB2 cells; blocking mAb 0.1 µg/mL; competitor: biotinylated B2Comp1
[2] = molecular target: Human LILRB2 on stably transduced HEK293T cells (human) (UniProt Q8N423); assay: flow cytometry competition on HEK293T-LILRB2 cells; blocking mAb 10 µg/mL; competitor: biotinylated B2Comp2
[3] = molecular target: Human LILRB2 on transiently transfected HEK293-6E cells (human) (UniProt Q8N423); assay: flow cytometry, transiently transfected HEK293-6E cells
[4] = molecular target: Human LILRB2 on stably transduced HEK293T cells (human) (UniProt Q8N423); assay: flow cytometry competition on HEK293T-LILRB2 cells; blocking mAb 1 µg/mL; competitor: biotinylated B2Comp1
[5] = molecular target: Human LILRB2 on stably transduced HEK293T cells (human) (UniProt Q8N423); assay: flow cytometry competition on HEK293T-LILRB2 cells; blocking mAb 0.1 µg/mL; competitor: biotinylated B2Comp2
[6] = molecular target: Human LILRB2 on stably transduced HEK293T cells (human) (UniProt Q8N423); assay: flow cytometry competition on HEK293T-LILRB2 cells; blocking mAb 1 µg/mL; competitor: biotinylated B2Comp2
[7] = molecular target: Human LILRB2 on stably transduced HEK293T cells (human) (UniProt Q8N423); assay: flow cytometry competition on HEK293T-LILRB2 cells; blocking mAb 10 µg/mL; competitor: biotinylated B2Comp1

Human LILRB2 on stably transduced HEK293T cells (human), sequence (Q8N423 other isoform, or with tags, fused parts or gaps limits assumed): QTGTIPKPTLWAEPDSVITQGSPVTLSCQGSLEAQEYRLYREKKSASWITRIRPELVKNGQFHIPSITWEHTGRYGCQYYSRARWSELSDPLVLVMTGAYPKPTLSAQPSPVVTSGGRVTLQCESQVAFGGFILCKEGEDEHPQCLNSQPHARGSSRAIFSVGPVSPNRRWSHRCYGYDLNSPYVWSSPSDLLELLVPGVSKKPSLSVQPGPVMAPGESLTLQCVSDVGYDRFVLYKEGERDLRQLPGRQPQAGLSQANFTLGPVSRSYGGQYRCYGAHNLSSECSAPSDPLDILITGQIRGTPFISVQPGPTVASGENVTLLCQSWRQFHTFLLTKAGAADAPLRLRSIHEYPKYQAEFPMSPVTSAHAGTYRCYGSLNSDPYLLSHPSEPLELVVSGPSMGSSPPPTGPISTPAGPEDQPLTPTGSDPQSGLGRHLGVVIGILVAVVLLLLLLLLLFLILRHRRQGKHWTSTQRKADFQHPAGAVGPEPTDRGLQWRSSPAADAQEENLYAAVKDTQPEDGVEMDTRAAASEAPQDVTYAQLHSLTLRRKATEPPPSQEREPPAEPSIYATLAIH
Human LILRB2 on transiently transfected HEK293-6E cells (human), sequence (Q8N423 22-597): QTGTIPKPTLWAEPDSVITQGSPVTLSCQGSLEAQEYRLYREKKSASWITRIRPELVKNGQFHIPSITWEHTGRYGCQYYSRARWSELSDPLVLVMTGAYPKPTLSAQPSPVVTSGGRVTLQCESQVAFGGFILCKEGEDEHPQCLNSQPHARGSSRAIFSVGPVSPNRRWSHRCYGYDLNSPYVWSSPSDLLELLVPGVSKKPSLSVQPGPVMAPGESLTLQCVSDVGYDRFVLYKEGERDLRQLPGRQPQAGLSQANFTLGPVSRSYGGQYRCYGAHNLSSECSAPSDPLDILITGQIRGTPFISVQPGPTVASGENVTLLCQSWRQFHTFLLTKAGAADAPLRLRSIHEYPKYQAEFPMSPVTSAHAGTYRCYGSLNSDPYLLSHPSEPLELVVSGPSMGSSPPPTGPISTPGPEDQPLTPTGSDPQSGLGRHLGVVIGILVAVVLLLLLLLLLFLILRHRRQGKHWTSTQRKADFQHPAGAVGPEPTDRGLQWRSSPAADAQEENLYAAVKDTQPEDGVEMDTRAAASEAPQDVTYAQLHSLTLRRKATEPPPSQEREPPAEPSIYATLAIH

B1: B2Comp2 (antibody, IgG4, V domains shown)
VH: QITLKESGPTLVKPTQTLTLTCTFSGFSLNTYAMGVSWIRQPPGKALEWLASIWWNGNKYNNPSLKSRLTVTKDTSKNQVVLTMTNMDPVDTATYYCAHSRIIRFTDYVMDAWGQGTLVTVSS
VL: DIQMTQSPSSLSTSVGDRVTITCRASEDIYNDLAWYQQKPGKAPKLLIYNANSLHTGVASRFSGSGSGTDFTFTISSLQPEDVATYFCQQYYDYPLTFGQGTKLEIKR
modifications: Biotin-conjugated when used as the labelled ('hot') benchmark antibody in the binning assay. The site is not stated and is not carried by the letters.
% Blocking of B2Comp1 Binding [1]: 47% | % Blocking of B2Comp2 Binding [2]: 100% | Bmax (MFI) [3]: 9630 MFI | % Blocking of B2Comp1 Binding [4]: 78% | % Blocking of B2Comp2 Binding [5]: 44% | % Blocking of B2Comp2 Binding [6]: 97% | % Blocking of B2Comp1 Binding [7]: 80%
